Reference: publication doi:10.1101/2022.06.24.497451

Target: SMC3CC/RAD21N complex (human)

Row | loss of ATPase activity compared to the WT complex when SMC3CC/RAD21N was added [%] | Substance
1 | 10 | SMC1ACC-R57A/RAD21C complex
2 | 10 | SMC1ACC-Δ58-62/RAD21C complex
